system: CyPPO13; experiment: PPO enzyme activity and IC50 by herbicides, CyPPO13 wild type and variants (MBP-PPO fusion); format: biochemical, Synechococcus sp. JA-3-3Ab; conditions: PPO enzyme activity of CyPPO13 protein, wild type = 100
Description: The enzyme activities of PPO protein and PPO protein variants were examined, and inhibition assay by PPO-inhibiting herbicides was conducted. It was confirmed that the PPO protein has low water-solubility, but in case of being expressed as a fusion protein with MBP (maltose binding protein) (MBP-PPO), the PPO protein is able to be stably expressed as water-soluble form. Therefore, the wild type and variant proteins which were expressed in the form of fusion protein with MBP were used in the present test (refer to FIG. 4).
In order to express wild type genes and mutant genes of CyPPO10 and CyPPO13 (refer to Example 1 and Example 4), those genes were introduced to pMAL-c2X vector (refer to FIG. 5) respectively, and then cloned to BL21 (DE3) E. coli (CodonPlus).
The enzyme activity of the purified wild type protein and variant proteins of CyPPO10 and CyPPO13 was measured by the following process.
At first, a substrate of PPO protein, Protoporphyrinogen IX was synthesized. This process was performed in the space where nitrogen gas is streamed. 6 mg of protoporphyrin IX was dissolved in 20% (v/v) EtOH 20 ml, and stirred under dark condition for 30 minutes. The obtained protoporphyrinogen IX solution was put into a 15 ml screw tube in an amount of 800 and flushed with nitrogen gas for 5 minutes. To this, 1 g of sodium amalgam was added and vigorous shaking was performed for 2 minutes. The lid was open to exhaust hydrogen gas in the tube. Thereafter, the lid was closed and incubated for 3 minutes. The […] was filtered using syringe and cellulose membrane filter. To 600 μl of the obtained […], 2M MOPS [3-(N-morpholino)propanesulfonic acid] was added in an amount of approximately 300 thereby adjusting pH to 8.0. To determine the enzyme activity of PPO protein, a reaction mixture was prepared with the following composition (based on 10 ml): 50 mM Tris-Cl (pH 8.0); 50 mM NaCl; 0.04% (v/v) Tween 20; 40 mM glucose (0.072 g); 5 units glucose oxidase (16.6 mg); and 10 units catalase (1 μl).
Two hundred microliters (200 μl) of reaction mixture containing a purified PPO protein were placed in 96 well plates, and preincubated for 30 min at room temperature to reduce the oxygen concentration by the reaction of glucose oxidase-catalase. The mineral oil was layered and then the reaction was initiated by adding the substrate, […], to a final concentration of 50 μM. The reaction proceeded at room temperature for 30 min and the fluorescence of protoporphyrin IX was measured using Microplate reader (Sense, Hidex) (excitation: 405 nm; emission: 633 nm). To calculate the PPO enzyme activity, protoporphyrinogen IX solution was kept open in the air to oxidize the solution (overnight). To this, 2.7N HCl was added, and the absorbance at 408 nm was measured. A standard curve was generated using standard protoporphyrin IX, and the PPO activity was measured by calibration of protoporphyrin IX using the standard curve of protoporphyrin IX.
The final concentration of each herbicide was as follows: […]

| Molecule | Activity (%) |
| --- | --- |
| CyPPO13 F373N: CyPPO13 (SEQ ID NO: 4) PPO variant (protein, Synthetic CyPPO13) MNPATPEPLNAEVVVIGAGISGLTLAWRLQQGLSARGGSPQAVLLAEASSRVGGCISTQSKDGYRWEEGPNSFTPTPALLNLIAEVGLTDQLVLADAKLPRYIYWEGALLPVPLSPAAALGSRLLSVGGKLRALQGLLGFVPPPPGHEETVRQFFRRQLGSEVAERLVEPFTSGVYAGDPDQLSAVAAFPRVAGLEERYGSLFAGALQALRQRPQPSPAAIQPPPKRGQLGNLRQGLQQLPEALAQKLGDSLRLGWRALQLKRAGELYWVGFETPEGSRWVAARQVVLALPAYEAAALLQELNPPASQLLAEILYPPVAVVALAYPQEALPQPLRGFGHLIPRSQGLRTLGTIWASCLFPERAPQGYHSFLSNLGGATDAALARRRGIPPIPALSPEERAQIAHAELSQVLLTRRAEPVYLGERLWPRAIPQYTLGHRQRIAQVQAHLASQTPGIWVCANYLDGVALGDCVRRAEALAQQLLSQV | 40 |
| CyPPO13 A177L + F373M: CyPPO13 (SEQ ID NO: 4) PPO variant (protein, Synthetic CyPPO13) MNPATPEPLNAEVVVIGAGISGLTLAWRLQQGLSARGGSPQAVLLAEASSRVGGCISTQSKDGYRWEEGPNSFTPTPALLNLIAEVGLTDQLVLADAKLPRYIYWEGALLPVPLSPAAALGSRLLSVGGKLRALQGLLGFVPPPPGHEETVRQFFRRQLGSEVAERLVEPFTSGVYLGDPDQLSAVAAFPRVAGLEERYGSLFAGALQALRQRPQPSPAAIQPPPKRGQLGNLRQGLQQLPEALAQKLGDSLRLGWRALQLKRAGELYWVGFETPEGSRWVAARQVVLALPAYEAAALLQELNPPASQLLAEILYPPVAVVALAYPQEALPQPLRGFGHLIPRSQGLRTLGTIWASCLFPERAPQGYHSFLSMLGGATDAALARRRGIPPIPALSPEERAQIAHAELSQVLLTRRAEPVYLGERLWPRAIPQYTLGHRQRIAQVQAHLASQTPGIWVCANYLDGVALGDCVRRAEALAQQLLSQV | 75 |
| CyPPO13 A177I + F373M: CyPPO13 (SEQ ID NO: 4) PPO variant (protein, Synthetic CyPPO13) MNPATPEPLNAEVVVIGAGISGLTLAWRLQQGLSARGGSPQAVLLAEASSRVGGCISTQSKDGYRWEEGPNSFTPTPALLNLIAEVGLTDQLVLADAKLPRYIYWEGALLPVPLSPAAALGSRLLSVGGKLRALQGLLGFVPPPPGHEETVRQFFRRQLGSEVAERLVEPFTSGVYIGDPDQLSAVAAFPRVAGLEERYGSLFAGALQALRQRPQPSPAAIQPPPKRGQLGNLRQGLQQLPEALAQKLGDSLRLGWRALQLKRAGELYWVGFETPEGSRWVAARQVVLALPAYEAAALLQELNPPASQLLAEILYPPVAVVALAYPQEALPQPLRGFGHLIPRSQGLRTLGTIWASCLFPERAPQGYHSFLSMLGGATDAALARRRGIPPIPALSPEERAQIAHAELSQVLLTRRAEPVYLGERLWPRAIPQYTLGHRQRIAQVQAHLASQTPGIWVCANYLDGVALGDCVRRAEALAQQLLSQV | 75 |
| CyPPO13 V318M + F373M: CyPPO13 (SEQ ID NO: 4) PPO variant (protein, Synthetic CyPPO13) MNPATPEPLNAEVVVIGAGISGLTLAWRLQQGLSARGGSPQAVLLAEASSRVGGCISTQSKDGYRWEEGPNSFTPTPALLNLIAEVGLTDQLVLADAKLPRYIYWEGALLPVPLSPAAALGSRLLSVGGKLRALQGLLGFVPPPPGHEETVRQFFRRQLGSEVAERLVEPFTSGVYAGDPDQLSAVAAFPRVAGLEERYGSLFAGALQALRQRPQPSPAAIQPPPKRGQLGNLRQGLQQLPEALAQKLGDSLRLGWRALQLKRAGELYWVGFETPEGSRWVAARQVVLALPAYEAAALLQELNPPASQLLAEILYPPMAVVALAYPQEALPQPLRGFGHLIPRSQGLRTLGTIWASCLFPERAPQGYHSFLSMLGGATDAALARRRGIPPIPALSPEERAQIAHAELSQVLLTRRAEPVYLGERLWPRAIPQYTLGHRQRIAQVQAHLASQTPGIWVCANYLDGVALGDCVRRAEALAQQLLSQV | 72 |
| CyPPO13 A177C + F373M: CyPPO13 (SEQ ID NO: 4) PPO variant (protein, Synthetic CyPPO13) MNPATPEPLNAEVVVIGAGISGLTLAWRLQQGLSARGGSPQAVLLAEASSRVGGCISTQSKDGYRWEEGPNSFTPTPALLNLIAEVGLTDQLVLADAKLPRYIYWEGALLPVPLSPAAALGSRLLSVGGKLRALQGLLGFVPPPPGHEETVRQFFRRQLGSEVAERLVEPFTSGVYCGDPDQLSAVAAFPRVAGLEERYGSLFAGALQALRQRPQPSPAAIQPPPKRGQLGNLRQGLQQLPEALAQKLGDSLRLGWRALQLKRAGELYWVGFETPEGSRWVAARQVVLALPAYEAAALLQELNPPASQLLAEILYPPVAVVALAYPQEALPQPLRGFGHLIPRSQGLRTLGTIWASCLFPERAPQGYHSFLSMLGGATDAALARRRGIPPIPALSPEERAQIAHAELSQVLLTRRAEPVYLGERLWPRAIPQYTLGHRQRIAQVQAHLASQTPGIWVCANYLDGVALGDCVRRAEALAQQLLSQV | 77 |
| CyPPO13 V175L + F373M: CyPPO13 (SEQ ID NO: 4) PPO variant (protein, Synthetic CyPPO13) MNPATPEPLNAEVVVIGAGISGLTLAWRLQQGLSARGGSPQAVLLAEASSRVGGCISTQSKDGYRWEEGPNSFTPTPALLNLIAEVGLTDQLVLADAKLPRYIYWEGALLPVPLSPAAALGSRLLSVGGKLRALQGLLGFVPPPPGHEETVRQFFRRQLGSEVAERLVEPFTSGLYAGDPDQLSAVAAFPRVAGLEERYGSLFAGALQALRQRPQPSPAAIQPPPKRGQLGNLRQGLQQLPEALAQKLGDSLRLGWRALQLKRAGELYWVGFETPEGSRWVAARQVVLALPAYEAAALLQELNPPASQLLAEILYPPVAVVALAYPQEALPQPLRGFGHLIPRSQGLRTLGTIWASCLFPERAPQGYHSFLSMLGGATDAALARRRGIPPIPALSPEERAQIAHAELSQVLLTRRAEPVYLGERLWPRAIPQYTLGHRQRIAQVQAHLASQTPGIWVCANYLDGVALGDCVRRAEALAQQLLSQV | 93 |
| CyPPO13 R101A + F373M: CyPPO13 (SEQ ID NO: 4) PPO variant (protein, Synthetic CyPPO13) MNPATPEPLNAEVVVIGAGISGLTLAWRLQQGLSARGGSPQAVLLAEASSRVGGCISTQSKDGYRWEEGPNSFTPTPALLNLIAEVGLTDQLVLADAKLPAYIYWEGALLPVPLSPAAALGSRLLSVGGKLRALQGLLGFVPPPPGHEETVRQFFRRQLGSEVAERLVEPFTSGVYAGDPDQLSAVAAFPRVAGLEERYGSLFAGALQALRQRPQPSPAAIQPPPKRGQLGNLRQGLQQLPEALAQKLGDSLRLGWRALQLKRAGELYWVGFETPEGSRWVAARQVVLALPAYEAAALLQELNPPASQLLAEILYPPVAVVALAYPQEALPQPLRGFGHLIPRSQGLRTLGTIWASCLFPERAPQGYHSFLSMLGGATDAALARRRGIPPIPALSPEERAQIAHAELSQVLLTRRAEPVYLGERLWPRAIPQYTLGHRQRIAQVQAHLASQTPGIWVCANYLDGVALGDCVRRAEALAQQLLSQV | 55 |

— patent publication US11466286B2, “Methods and compositions for conferring and/or enhancing herbicide tolerance using protoporphyrinogen oxidase or variant thereof” (FarmHannong Co., Ltd., priority 2016, dated 2022)
